In patent US20170014503A1:
Where no end group is shown, it is not given here.

Molecular target: 2F5 mAb
Assay: cell-based or functional assay

B1: SP62 peptide gp41 652-671, biotinylated (peptide)
peptide: QQEKNEQELLELDKWASLWN
modifications: not fully specified
B1 was tested, and the IC50 of 2F5 mAb against TND-669S Env-pseudovirus after pre-absorption with 0.3 µM peptide was 0.911.
